# Substrate: O=C(Cc1cccs1)N[C@@H]1C(=O)N2C(C(=O)O)=C(/C=C/c3ccc([N+](=O)[O-])cc3[N+](=O)[O-])CS[C@H]12
# Assay: purified protein
# Details: nitrocefin 50-200 μM, phosphate buffer pH 7.4
protein,measurement,value
PBP2a (Staphylococcus aureus) (protein) YASKDKEINNTIDAIEDKNFKQVYKDSSYISKSDNGEVEMTERPIKIYNSLGVKDINIQDRKIKKVSKNKKRVDAQYKIKTNYGNIDRNVQFNFVKEDGMWKLDWDHSVIIPGMQKDQSIHIENLKSERGKILDRNNVELANTGTAYEIGIVPKNVSKKDYKAIAKELSISEDYIKQQMDQKWVQDDTFVPLKTVKKMDEYLSDFAKKFHLTTNETESRNYPLEKATSHLLGYVGPINSEELKQKEYKGYKDDAVIGKKGLEKLYDKKLQHEDGYRVTIVDDNSNTIAHTLIEKKKKDGKDIQLTIDAKVQKSIYNNMKNDYGSGTAIHPQTGELLALVSTPSYDVYPFMYGMSNEEYNKLTEDKKEPLLNKFQITTSPGSTQKILTAMIGLNNKTLDDKTSYKIDGKGWQKDKSWGGYNVTRYEVVNGNIDLKQAIESSDNIFFARVALELGSKKFEKGMKKLGVGEDIPSDYPFYNAQISNKNLDNEILLADSGYGQGEILINPVQILSIYSALENNGNINAPHLLKDTKNKVWKKNIISKENINLLTDGMQQVVNKTHKEDIYRSYANLIGKSGTAELKMKQGETGRQIGWFISYDKDNPNMMMAINVKDVQDKGMASYNAKISGKVYDELYENGNKKYDIDE,Km,29.28 µM
same,kcat,259.1 s⁻¹
